Assay results as given in the supplement of paper PMC9233669.
Variants at the floor of the assay were thinned out.

Key:
biotinyl-Ile-oxazolone = assay: self-aminoacylation, catalytic enhancement (BIO) (fold over background); higher = more active; k-Seq, kA / k0A0; sequences stand for … in GGGAAUGGAUCCACAUCUACGAAUUC…UUCACUGCAGACUUGACGAAGCUG
In short: (§1)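 Working in 50 μL HEPES/NaCl/KCl/MgCl2/CaCl2 buffer with 5% acetonitrile at pH 6.9–7.0, mutagenized RNA pools (0.43 μM; 21-nt variable region) were reacted with 2–1250 μM of each biotinyl-aminoacyl-oxazolone for 90 minutes at room temperature. Streptavidin capture followed, with quantification by triplicate qPCR and Illumina sequencing. Catalytic enhancement is reported as median kA over the uncatalyzed rate, the low-activity peak of a bimodal Gaussian fit to the data.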

biotinyl-Met-oxazolone = assay: self-aminoacylation, catalytic enhancement (BMO) (fold over background); higher = more active; k-Seq, kA / k0A0; sequences stand for … in GGGAAUGGAUCCACAUCUACGAAUUC…UUCACUGCAGACUUGACGAAGCUG
In short: as §1

biotinyl-Leu-oxazolone = assay: self-aminoacylation, catalytic enhancement (BLO) (fold over background); higher = more active; k-Seq, kA / k0A0; sequences stand for … in GGGAAUGGAUCCACAUCUACGAAUUC…UUCACUGCAGACUUGACGAAGCUG
In short: as §1

biotinyl-Val-oxazolone = assay: self-aminoacylation, catalytic enhancement (BVO) (fold over background); higher = more active; k-Seq, kA / k0A0; sequences stand for … in GGGAAUGGAUCCACAUCUACGAAUUC…UUCACUGCAGACUUGACGAAGCUG
In short: as §1

biotinyl-Phe-oxazolone = assay: self-aminoacylation, catalytic enhancement (BFO) (fold over background); higher = more active; k-Seq, kA / k0A0; sequences stand for … in GGGAAUGGAUCCACAUCUACGAAUUC…UUCACUGCAGACUUGACGAAGCUG
In short: as §1

biotinyl-Trp-oxazolone = assay: self-aminoacylation, catalytic enhancement (BWO) (fold over background); higher = more active; k-Seq, kA / k0A0; sequences stand for … in GGGAAUGGAUCCACAUCUACGAAUUC…UUCACUGCAGACUUGACGAAGCUG
In short: as §1

| Sequence | self-aminoacylation (biotinyl-Ile-oxazolone) | self-aminoacylation (biotinyl-Met-oxazolone) | self-aminoacylation (biotinyl-Leu-oxazolone) | self-aminoacylation (biotinyl-Val-oxazolone) | self-aminoacylation (biotinyl-Phe-oxazolone) | self-aminoacylation (biotinyl-Trp-oxazolone) |
| --- | --- | --- | --- | --- | --- | --- |
| GUUCACCUAGGUCAUCCGGUG [Fam2.2 aminoacylation ribozyme variant] | 5.36 | 6.69 | 6.89 | 5.33 | 45.4 | 7.53 |
| GUUCACCUAGGUCAUCGGGCG [Fam2.2 aminoacylation ribozyme variant] | 2.98 | 4.01 | 5.06 | 3.11 | 4.6 | 4.17 |
| GUUCACCUAGGUCAUCGGGUG [Fam2.2 aminoacylation ribozyme variant] | 13.7 | 25.5 | 32.5 | 12.5 | 180 | 20.1 |
| GUUCACCUAGGUCAUCGGGUU [Fam2.2 aminoacylation ribozyme variant] | 7.61 | 13.5 | 17.9 | 6.82 | 51.7 | 9.2 |
| GUUCACCUAGGUCAUGGGGUG [Fam2.2 aminoacylation ribozyme variant] | 2.64 | 3.63 | 4.4 | 3.01 | 10.3 | 4.06 |
| GUUCACCUUGGUCAUCGGGUG [Fam2.2 aminoacylation ribozyme variant] | 3.45 | 5.14 | 5.74 | 4.34 | 37.7 | 5.93 |
| GUUCCCCUAGGUCAUCGGGUG [Fam2.2 aminoacylation ribozyme variant] | 7.72 | 13.3 | 14.2 | 8.06 | 94.8 | 12.1 |
| GUUGCCCUGGUCAUCGAGUGA [Fam2.1 aminoacylation ribozyme variant] | 19.1 | 54.2 | 57.5 | 23.4 | 382 | 58.8 |
| UACUUUGCUAAUAGUCGCAAG [Fam3.1 aminoacylation ribozyme variant] | 1.75 | 1.66 | 1.86 | 1.33 | 2.71 | 1.46 |
| UAGUUUGCGAAUAGUCGCAAG [Fam3.1 aminoacylation ribozyme variant] | 1.82 | 1.68 | 1.75 | 1.1 | 2.28 | 1.73 |
| UAGUUUGCUAAUAGUCGCAGG [Fam3.1 aminoacylation ribozyme variant] | 1.72 | 1.2 | 1.31 | 1.34 | 2.23 | 2.22 |
| UAUACCCUGGUCAUCGAGUGA [Fam2.1 aminoacylation ribozyme variant] | 7.17 | 14.8 | 15.5 | 7.52 | 25.2 | 16 |
| UCACACUUCAAGCAAUCCGUC [Fam1B.1 aminoacylation ribozyme variant] | 0.955 | 0.667 | 0.591 | 1.25 | 1.15 | 1.01 |
| UCACACUUCAAGCAAUCGCUC [Fam1B.1 aminoacylation ribozyme variant] | 1.43 | 1.46 | 1.3 | 1.32 | 1.94 | 1.45 |
| UCACACUUCAAGCAAUCGGUG [Fam1B.1 aminoacylation ribozyme variant] | 3.81 | 5.17 | 7.95 | 3.95 | 29 | 6.38 |
| UCACACUUCAAGCACUCGGUC [Fam1B.1 aminoacylation ribozyme variant] | 0.94 | 0.873 | 0.927 | 1.32 | 0.873 | 0.771 |
| UCACACUUCAAGCAGUCGGUC [Fam1B.1 aminoacylation ribozyme variant] | 0.827 | 0.968 | 0.879 | 0.972 | 1.06 | 0.901 |
| UCACACUUCAAGCUAUCGGUC [Fam1B.1 aminoacylation ribozyme variant] | 0.939 | 0.703 | 0.749 | 1.02 | 1.11 | 0.724 |
| UCACAUUUCAAGCAAUCGGUC [Fam1B.1 aminoacylation ribozyme variant] | 1.04 | 0.73 | 0.847 | 1.07 | 2.47 | 1.56 |
| UCGCACUUCAAGCAAUCGGUC [Fam1B.1 aminoacylation ribozyme variant] | 1.38 | 1.44 | 2.14 | 1.61 | 55.1 | 29.8 |
| UUACACCUAGGUCAUCGGGUG [Fam2.2 aminoacylation ribozyme variant] | 2.25 | 1.92 | 1.87 | 2.15 | 10.5 | 3 |
| UUACUUCAAACAAUCGGCCUG [Fam1A.1 aminoacylation ribozyme variant] | 2.69 | 2.35 | 4.03 | 2.3 | 95.3 | 43.2 |
| UUACUUCAAACAAUCGGUCCG [Fam1A.1 aminoacylation ribozyme variant] | 0.82 | 0.942 | 0.937 | 0.891 | 1.69 | 1.64 |

| Sequence | self-aminoacylation (biotinyl-Ile-oxazolone) | self-aminoacylation (biotinyl-Met-oxazolone) | self-aminoacylation (biotinyl-Leu-oxazolone) | self-aminoacylation (biotinyl-Val-oxazolone) | self-aminoacylation (biotinyl-Phe-oxazolone) | self-aminoacylation (biotinyl-Trp-oxazolone) |
| --- | --- | --- | --- | --- | --- | --- |
| UUACUUCAAACAAUCGGUGUG [Fam1A.1 aminoacylation ribozyme variant] | 1.51 | 1.97 | 2.36 | 1.46 | 7.15 | 5.33 |
| UUACUUCAAACAAUUGGUCUG [Fam1A.1 aminoacylation ribozyme variant] | 1.43 | 1.2 | 1.14 | 1.12 | 1.76 | 1.61 |
| UUCACCCUGGUCAUCGAGUGA [Fam2.1 aminoacylation ribozyme variant] | 5.88 | 11.3 | 10.6 | 6.29 | 13.2 | 12.7 |
| UUGCACCUAGGUCAUCGGGUG [Fam2.2 aminoacylation ribozyme variant] | 3.11 | 3.89 | 4.63 | 3.66 | 38.8 | 5.53 |
| UUUAACCUAGGUCAUCGGGUG [Fam2.2 aminoacylation ribozyme variant] | 5.19 | 5.87 | 7.42 | 4.48 | 36.3 | 7.19 |
| UUUAACCUGGUCAUCGAGUGA [Fam2.1 aminoacylation ribozyme variant] | 4.01 | 5.83 | 5.8 | 4.17 | 11.2 | 8.93 |
| UUUACCCAGGUCAUCGAGUGA [Fam2.1 aminoacylation ribozyme variant] | 3.49 | 5.36 | 5.06 | 3.55 | 21.9 | 6 |
| UUUACCCCGGUCAUCGAGUGA [Fam2.1 aminoacylation ribozyme variant] | 3.31 | 6.14 | 6.37 | 3.64 | 35.5 | 6.13 |
| UUUACCCUGGGCAUCGAGUGA [Fam2.1 aminoacylation ribozyme variant] | 2.3 | 4.18 | 4.84 | 2.83 | 10.4 | 5.06 |
| UUUACCCUGGUAAUCGAGUGA [Fam2.1 aminoacylation ribozyme variant] | 4.2 | 9.02 | 8.58 | 3.97 | 58.7 | 10.4 |
| UUUACCCUGGUCAUCAAGUGA [Fam2.1 aminoacylation ribozyme variant] | 1.25 | 2.24 | 1.85 | 1.63 | 3.22 | 3.07 |
| UUUACCCUGGUCAUCGAGUGG [Fam2.1 aminoacylation ribozyme variant] | 8.85 | 31.5 | 27.3 | 9.95 | 154 | 29.3 |
| UUUACCCUGGUCAUCGAGUUA [Fam2.1 aminoacylation ribozyme variant] | 3.03 | 7.29 | 6.2 | 3.5 | 16.7 | 6.24 |
| UUUACCCUGGUCAUUGAGUGA [Fam2.1 aminoacylation ribozyme variant] | 3.76 | 7.86 | 7.06 | 3.91 | 38.1 | 10.1 |
| UUUACCCUGGUUAUCGAGUGA [Fam2.1 aminoacylation ribozyme variant] | 4.28 | 7.81 | 7.57 | 4.19 | 25.7 | 10.6 |
| UUUACCCUGUUCAUCGAGUGA [Fam2.1 aminoacylation ribozyme variant] | 2.21 | 4.11 | 3.91 | 2.56 | 5.37 | 5.71 |
| UUUACCCUUGUCAUCGAGUGA [Fam2.1 aminoacylation ribozyme variant] | 3.37 | 6.04 | 6.18 | 3.38 | 19.9 | 7.94 |
| UUUACCGUGGUCAUCGAGUGA [Fam2.1 aminoacylation ribozyme variant] | 3.2 | 5.63 | 5.18 | 3.63 | 17.7 | 7.07 |
| UUUCACCUAGGACAUCGGGUG [Fam2.2 aminoacylation ribozyme variant] | 3 | 3.39 | 3.31 | 3.19 | 26.8 | 4.64 |
| UUUCACCUAGUUCAUCGGGUG [Fam2.2 aminoacylation ribozyme variant] | 2.44 | 2.6 | 2.99 | 3.09 | 18.6 | 3.92 |
| UUUCGCCUAGGUCAUCGGGUG [Fam2.2 aminoacylation ribozyme variant] | 5.36 | 6.25 | 7.49 | 5.33 | 44.1 | 7.75 |
| UUUGACCUAGGUCAUCGGGUG [Fam2.2 aminoacylation ribozyme variant] | 4.3 | 4.5 | 5.93 | 4.23 | 26.6 | 6.51 |
